# B1: Peocin: bacteriocin; DNA starvation/stationary phase protection protein produced by Paenibacillus ehimensis NPUST-1, amino acid SEQ ID NO: 1 (protein, listed as Paenibacillus ehimensis)
# chain: MNEQLTVLLNNQIANWSVLYVKLHNYHWYVKGPQFFTLHTKFEELYTEAALHVDALAERLLALGGKPVATMSGSLRLASVREAEGEESAERMVAALVNDFTLIIGELKSGMKYAESVQDETTGDLLLAIHSSLEKHVWMLNAFLGN
# Experiments:
# E. coli [1] = assay: Antibacterial activity of Peocin expressed in E. coli BL21 (DE3)/pET-28-peocin; format: cell-based
# Experimental: Add 30 μl E. coli BL21 (DE3)/pET-28-peocin bacterial liquid and 3 μl Kanamycin (100 mg/ml) to 3 ml LB culture broth and incubate for 24 hours. After incubation, add 0.5 ml medium and 50 μl Kanamycin (100 mg/ml) in 50 ml LB culture broth, incubate for 3 hours and add 50 μl 1M IPTG to induce expression of high-level production of protein. Incubate for 9 hours, measure the OD600 nm absorbance of bacterial broth, concentrate the bacterial liquid to OD600 nm=60/ml, wash with 1×PBS for once, place the bacterial broth in centrifuge and centrifuge it for 15 minutes with the speed of 1300 rpm. Remove the supernatant, add 2 ml 1×PBS and lyse by ultrasonic machine under 5 seconds on/5 seconds off cycle for 5 minutes, then again place the bacterial broth in centrifuge and centrifuge it for 20 minutes under 4° C. with the speed of 4000 rpm. Extract the supernatant and filter it using 0.45 μm syringe filter, then preserve the sample in 4° C. freezer to await for further steps. Load E. coli BL21 (DE3)/pET-28 and E. coli BL21 (DE3)/pET-28-peocin in the same SDS-PAGE to confirm that the transformed plasmid do express antibacterial protein in high-level production, then test antibacterial activity and measure inhibitory zone of E. coli BL21 (DE3)/pET-28 and E. coli BL21 (DE3)/pET-28-peocin protein sample on TSB medium containing E. coli to confirm the antibacterial ability of expressed protein.
# Staphylococcus aureus = assay: Inhibitory zone of Peocin on solid medium containing pathogen; format: cell-based; conditions: solid medium containing strain 10^6 CFU/ml
# Text: (§1) Following pathogens were subjected in the test. Six aquaculture pathogen: Aeromonas hydrophila, Vibrio vulnificus, Vibrio alginolyticus, Vibrio parahaemolyticus, Streptococcus agalactiae and Debaryomyces hansenii. Five foodborne pathogen which cause food rot and food poisoning: Staphylococcus aureus, Methicillin-resistant Staphylococcus aureus (MRSA), Escherichia coli, Salmonella typhimurium and Listeria monocytogenes. Two clinical infectious pathogens: Pseudomonas aeruginosa and Burkholderia gladioli causing leaf spot disease. Culture these strains separately and create solid medium containing these strains (10^6 CFU/ml). Add antibacterial protein after solid medium solidifies, then measure the antibacterial activity and inhibitory zone diameter.
# Pseudomonas aeruginosa = assay: as above; format: cell-based; conditions: solid medium containing strain 10^6 CFU/ml
# Text: as §1
# Vibrio alginolyticus = assay: as above; format: cell-based; conditions: solid medium containing strain 10^6 CFU/ml
# Text: as §1
# Debaryomyces hansenii = assay: as above; format: cell-based; conditions: solid medium containing strain 10^6 CFU/ml
# Text: as §1
# Vibrio vulnificus = assay: as above; format: cell-based; conditions: solid medium containing strain 10^6 CFU/ml
# Text: as §1
# Aeromonas hydrophila = assay: as above; format: cell-based; conditions: solid medium containing strain 10^6 CFU/ml
# Text: as §1
# Streptococcus agalactiae = assay: as above; format: cell-based; conditions: solid medium containing strain 10^6 CFU/ml
# Text: as §1
# [2] = system: Methicillin-resistant Staphylococcus aureus (MRSA); assay: as above; format: cell-based; conditions: solid medium containing strain 10^6 CFU/ml
# Text: as §1
# Salmonella typhimurium = assay: as above; format: cell-based; conditions: solid medium containing strain 10^6 CFU/ml
# Text: as §1
# Vibrio parahaemolyticus = assay: as above; format: cell-based; conditions: solid medium containing strain 10^6 CFU/ml
# Text: as §1
# Burkholderia gladioli = assay: as above; format: cell-based; conditions: solid medium containing strain 10^6 CFU/ml
# Text: as §1
# Escherichia coli = assay: as above; format: cell-based; conditions: solid medium containing strain 10^6 CFU/ml
# Text: as §1
# Listeria monocytogenes = assay: as above; format: cell-based; conditions: solid medium containing strain 10^6 CFU/ml
# Text: as §1
# E. coli [3] = assay: Evaluation of antibacterial protein pH tolerance; format: physicochemical; conditions: 28° C.
# Experimental: Add the purified antibacterial substance in PBS buffer pH7.4 as control group. The experimental groups comprise pH 2, pH3, pH 4, pH 5, pH 6, pH 7, pH 8, pH 9 and pH 10 group, the buffer used for different pH treatment are Glycine-HCl buffer (pH 2.0), Citrate-phosphate Mcllvaine buffer (pH 3.0, 4.0, 5.0 and 6.0), Sodium-phosphate buffer (pH 7.0), Tris(hydroxymethyl) aminomethane buffer (pH 8.0 and 9.0) and Glycine-NaOH buffer (pH 10.0). First, add 500 μl of purified antibacterial protein in 15 ml centrifuge individually for each group, then add 2 ml of different pH buffer to change pH environment of treated antibacterial substance and stand for 4 hours under 28° C. After 4 hours, measure the antibacterial activity and inhibitory zone diameter using TSB agar plate containing E. coli.
# trypsin = assay: Sensitivity of antibacterial protein Peocin to protease; format: physicochemical; conditions: trypsin 1 mg/ml, 4 hours, 37° C.
# Experimental: (§2) Evaluate sensitivity of Peocin to proteinase K and trypsin respectively. First, add 180 μl of purified antibacterial protein peocin into 1.7 ml micro-centrifuge tube, then add 20 μl of 10 mg/ml proteinase K and trypsin respectively for the final concentration of protease to be 1 mg/ml, then stand for 4 hours under 37° C. for reaction. Next, use TSB agar plate containing E. coli to measure the antibacterial activity and inhibitory zone diameter. For comparison, use PBS buffer without antibacterial protein as buffer group, and control group is purified antibacterial protein peocin without protease.
# proteinase K = proteinase K (Parengyodontium album, UniProt P06873); assay: as above; format: physicochemical; conditions: protease K 1 mg/ml, 4 hours, 37° C.
# Sequence of proteinase K (P06873 106-384): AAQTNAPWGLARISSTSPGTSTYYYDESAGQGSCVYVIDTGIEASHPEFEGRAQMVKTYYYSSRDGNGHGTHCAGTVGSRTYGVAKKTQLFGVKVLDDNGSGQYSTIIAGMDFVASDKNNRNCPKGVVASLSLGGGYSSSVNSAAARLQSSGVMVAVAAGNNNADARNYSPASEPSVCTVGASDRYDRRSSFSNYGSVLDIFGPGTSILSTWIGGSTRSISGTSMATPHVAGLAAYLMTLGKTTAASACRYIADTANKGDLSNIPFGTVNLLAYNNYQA
# Experimental: as §2
# E. coli [4] = assay: Antibacterial protein stability under different preservation temperature for 70 days; format: physicochemical
# Experimental: Place purified antibacterial protein Peocin sample in 40° C., room temperature, 4° C. and −20° C. environment respectively for 70 days. Each week during the experiment, extract samples and measure their antibacterial activity and inhibitory zone diameter using TSB agar plate containing E. coli.
# E. coli [5] = assay: Evaluation of antibacterial protein temperature tolerance; format: physicochemical; conditions: 30, 40, 50, 60, 70, 80, 90, 100 and 121° C. for 1 hour; control 4° C.
# Experimental: Place 100 μl Peocin under 30° C., 40° C., 50° C., 60° C., 70° C., 80° C., 90° C., 100° C. and 121° C. respectively and stand for an hour, all treatment group except 121° C. group is put in the dry bath incubator, which can set to temperature 30° C.˜100° C. The 121° C. group is put in the sterilizer which can proceed wet heat sterilize at 121° C. Use Peocin stored under 4° C. as control group, and use the TSB agar plate containing E. coli to measure antibacterial activity and inhibitory zone diameter after an hour.
molecule,measurement,setting,value
B1,antibacterial activity when expressed in E. coli,E. coli [1]; inside E. coli BL21 (DE3)/pET-28-peocin after induction,no antibacterial activity
same,antibacterial activity of recombinant protein released outside of E. coli,"E. coli [1]; supernatant of lysed E. coli BL21 (DE3)/pET-28-peocin, TSB medium containing E. coli",antibacterial effect
same,Diameter of inhibitory zone,Staphylococcus aureus,1.1 ± 0.05 cm
same,Diameter of inhibitory zone,Pseudomonas aeruginosa,1.2 ± 0.00 cm
same,Diameter of inhibitory zone,Vibrio alginolyticus,1.1 ± 0.03 cm
same,Diameter of inhibitory zone,Debaryomyces hansenii,1.3 ± 0.00 cm
same,Diameter of inhibitory zone,Vibrio vulnificus,1.3 ± 0.00 cm
same,Diameter of inhibitory zone,Aeromonas hydrophila,1.3 ± 0.00 cm
same,Diameter of inhibitory zone,Streptococcus agalactiae,1.4 ± 0.00 cm
same,Diameter of inhibitory zone,[2],1.1 ± 0.05 cm
same,Diameter of inhibitory zone,Salmonella typhimurium,1.1 ± 0.05 cm
same,Diameter of inhibitory zone,Vibrio parahaemolyticus,1.2 ± 0.03 cm
same,Diameter of inhibitory zone,Burkholderia gladioli,1.5 ± 0.05 cm
same,Diameter of inhibitory zone,Escherichia coli,1.4 ± 0.00 cm
same,Diameter of inhibitory zone,Listeria monocytogenes,1.0 ± 0.05 cm
same,antibacterial activity remained,E. coli [3]; pH2 for 4 hours,87%
same,antibacterial activity after pH treatment,E. coli [3]; pH 3~10 for 4 hours,remain stable
same,antibacterial activity after protease treatment,trypsin,stable antibacterial activity
same,antibacterial activity after protease treatment,proteinase K,stable antibacterial activity
same,antibacterial activity remained after preservation,E. coli [4]; 4° C.,90%
same,antibacterial activity remained after preservation,E. coli [4]; 40° C.,66%
same,antibacterial activity remained after preservation,E. coli [4]; room temperature,80%
same,antibacterial activity remained after preservation,E. coli [4]; −20° C.,90%
same,antibacterial activity after temperature treatment,E. coli [5],maintain original antibacterial activity

# — patent publication US10689421B2, “Bacteriocin-producing Paenibacillus ehimensis and application thereof” (National Pingtung University of Science and Technology, priority 2018, dated 2020)
